Assay: yeast display, Sf9 membrane polyspecificity reagent, FACS + sequencing; frameworks hold sequencing errors
Summary of the method: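 Using colony PCR, genes from sorted yeast display clones were amplified, then sequenced on MiSeq at 2 × 250 and filtered by CDR length. The clones had been stained with 10% biotinylated, detergent-solubilized Sf9 membrane reagent for 1 hour at 4 °C and sorted by FACS into low and high (top ~1%) gates on anti-HA and streptavidin fluorescence. Polyreactivity labels come from the gate of origin.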

Row | Sequence | polyreactivity (PSR sort gate)
1 | QVQLVESGGGLVQAGGSLRLSCAASGRIFYPYAMGWYRQAPGKERELVAAITSGGSTYYADSVKGRFTISRDNAKNTVYFQMNSLKPEDTAVYYCAADVVDLYLLDYWGQGTQVTVSS | low polyreactivity
2 | QVQLVESGGGLVQAGGSLRLSCAASGIIFYFYAMGWYRQAPGKERELVAAISRGGSTKYADSVKGRFTISRDNAKNTVYLQMNSLKPEDTAVYYCAATRRRPSEYYYWGQGTQVTVSS | high polyreactivity
3 | QVQLVESGGGLVQAGGSLRLSCAASGFTFDYYAMGWYRQAPGKERELVAAISRRGTSTYYADSVKGRFTISRDNAKNTVYLQMYSLKPEDTAVYYCNAVTSSFYNRDSDYWGQGTQVTVSS | high polyreactivity
4 | QVQLVESGGGLVQAGGSLRLSCAASGRILPYNVMGWYRQATGKEREFVAAITGSGGDTYYADSVKGRFTISRDNAKNTVYLQMHILKPVDTAVYYCAAAPYIGGSFGQTPGSGYWGQGTQVTVSS | low polyreactivity
5 | QVQLVESGGGLVQAGGSLRLSCAASGRTFTGNAMGWYRQAPGKERELVAAISTSGTRTSYADSVKGRFTISRDNAKNTVYLQMNSLKPEDTAVYYCAALRKSLYRTYTYDYWGQGTQVTVSS | high polyreactivity
6 | QVHLVESGGGLVQAGGSLRLSCAASGSIFTSYAMGWYRQAPGKERELVAAITSGGSTNYADSVKGRFTISRDNAKNTVFLKMNSLKPEDTAVDYCAKDRPGQLRWWFLYGYWGQGTQVTVSS | low polyreactivity
7 | QVQLVESGGGLVQAGGSLRLSCAASGRIFDGYAMGWYRQAPGKERELVAAINRSGSSTYYADSVKGRFTISRDNAKNTVYLQMNSLKPEDTAVYYCNARSGNRYGPRYDYWGQGTQVTVSS | high polyreactivity
8 | QVQLVESGGGLVQAGVSLRLSCAASGSTFGENDMGWYRQAPGKERELVAAITWSGGSTYYADSVKGRFTISRDNAKNTVYLQMNSLNPEVTAVYYCNAEGVGRYSPVSHTFDYWGQGTQVTVSS | low polyreactivity
9 | QVQLVESGGGLVQAGGSLRLSCAASGFILSRYTMGWYRQAPGKERELVATISSGGRTYYADSVKGRFTISRDNAKNTVYLQMNSLKPEDTAVYYCAAAYTYWRIPGNRYLYDYWGQGTQVTVSS | high polyreactivity
10 | QVHLVESGGRLVQAGGSLRLICAASGRIFFTYAMGWYRQAPGKDRELVASITGSGGSTYYADSVKGSFTISRDNAKNTVYLQMNRLKPEDTAVYYCAAALFRRQLYRKFYYWGQGTQVTVSS | low polyreactivity
11 | QVQLVESGGGLVQAGGRLRLSCAASGGTFYLNAMGWYRQAPGKERELVAAISGSGTSTYYADSVKGRFTISRDNAKNTVYLQMNSLKPEDTAVYYCAADGTYFYIYLGDRFDYWGQGTQVTVSS | low polyreactivity
12 | QLQLVESGGGLVQAGGSLRLSCAASGSIFNRYAMGSYRQAPGKERELVAAITRSAARTYYADSVKGRFTISRDNAKTTVYLQMNRLKPEDTAVYYCKAATTPYGYSYYYLGQGTQVTVSS | high polyreactivity
13 | QVQLVESGGGLVQAGVSLRLSCAASGTFFIYAMGWYRQAPGKERELVAAITSGDITYYADSVKGRFTISRDNAKNTVYFEMNRLKPEDTAVYYCAAESYAWWDKQFLYRYDYWGQGTQVTVSS | low polyreactivity
14 | QVQLVESGGGLVQAGGSLRLSCAPSGITFRYYAMGWYRQAPGKERELVAAITRSGSTTYADSVKGRFTISRDNAKNTVYLQMNSLKPEVTAVYYCAVDYYYLTGGVDYWGQGTQVTVSS | low polyreactivity
15 | QVQLVESGGGLVQAGGSLRLTCAASGSTSEVYAMGWYRQAPGKEREFVAAISRSGGTTYYADSVKGRFTISRDNAKNTVYLQMKSVKPEDTAVYYCNARGYSGVSGKYGYWGQGTQVTVSS | high polyreactivity
16 | QVQLVESGGGLVQAGGSLRLSCAASGIIFPFYAMGWYRQAPGKEREFVAAITSGDDTYYADSVKGRFTISRDNAKNTVYLQMNSLKPEDTAVYYCNKRLYIAGYWPQLYYIMDYWGQGTQVTVSS | low polyreactivity
17 | QVQLVESGGGLVQAGGSLRLSCAASGFTFGGYAMGWYRQAPGKERELVAAINSIGGTTYYADSVKGRFTISRDNAKNTVYLQMNRLKPEDTAVYYCAAGFYGYARHTWYNYWGQGTQVTVSS | high polyreactivity
18 | QVQLVESGGGLVQAGGRLRLSCAASGSIVGLYVMGWYRQAPGKERELVATITSGGSTYYADSVKGRFTISRDNAKNTDYLQMNSLKPEDTAVYYSAADPQDAADLPDLFYDYDYWGQGTQVTVSS | low polyreactivity
19 | QVQLVESGGGLVQAGGSLRLSCAASGSTINYYAMGWYIQAPGKERELVARITWSGARTYYADSVKGRFTISRDNAKNTVYLQMNSLKPEDTAVYYCAAGYLALESPWYYRWYDYWGQGTQVTVSS | low polyreactivity
20 | QVQLVESGGGLVQAGGSLRLTCAASGFTFNRYTMGWYRQAPGKERELVAAITRSGGSTYYADSVKGRFTISRDNAKNTVDLQMNSLKPEDTAVYYCAAPSYLVAGYGYWGQGTQVTLSS | high polyreactivity
21 | QVQLVESGGGLVQAGGILRLSCAASGRTFGINAMGWYRQAPGKERELVARIRKTVGSTYYADSVKGRFTISRDNAKNTVYLQMNSLKPEDTAVYYCAADLRYGYLYPYDSWGQGTQVTVSS | high polyreactivity
22 | QVQRVESGGGLVQAGGSLRLSCAASGRTFTYYAMGWYRQAPGKERELVAAISSRGGSTYYADSVKGRFTISRDNAKNTVYLQMNSLKPEDTAVYYCAAVLRFTRASRWPDFDYWGQGTQVTVSS | high polyreactivity

Row | Sequence | polyreactivity (PSR sort gate)
23 | QVQLVESGGGLVQAGGSLRLSCAASGFTFSSYAMGWYRQAPGKERELVAAITQSGGRTYYADSVKGRFTISRDNAKNTVYLQMNSLKPEDTADYYCAADVTLWYDYWGQGTQVTVSS | low polyreactivity
24 | QVQLVESGGGLVQAGGSLRLSCAASGFNYYTMGWYRQAPGKERELVAAINYSGGRTYYADSVKGRFTISRDNAKNTVYLQMNSLKPEDTAVYYCNTARSPYDHRPERSYDYWGQGTQVTVSS | high polyreactivity
25 | QVQLVESGGGLVQAGGSLRLSCAASGRTFGLYDMGWYRQAPGKERELVAGITRRGGCTYYADSVKGRFTISRDNAKNTVYLQMYSLKPEDTAVYYCAAGTIYLRHAQSPFDYWGQGTQVTVSS | high polyreactivity
26 | QFQLVESGGGLVQAGGSLRLSCAASGRIFGVYAMGWYRQAPVKERQLVATISLSAGRTYYADSVKGRFTISRDNAKNTVYLQMNSLKPEDTAVYYCAAQSNYSIRRHYYTFRYSYDYWGQGTQVTVSS | high polyreactivity
27 | QVQLVESGGGLVQAGGSLRLSCAASGNIFKHYAMGWYRQAPGKERELVAAITWSGGSTHYADSVKGRFTISRDNAKNTVYFQMNSLKPEDTAVSYCAARGWWPGTKWTRYDYWGQGTQVTVSS | high polyreactivity
28 | QVQIVESGGGLVQAGGSLRLSCAASGRTFRGNVMGWSRQAPGKEREFVAAITRSGSNTYYADSVKGRFTISRDNAKNTVYLQMNSLKPEDTAVYYCAKSVLLGYKRHDSWGQGTQVTVSS | high polyreactivity
29 | QVQLVESGGGLVQAGGSLRLSCAASGYTFYVYAMGWYRQAPGKERELVAAIRSGGTTYYADSVKGRFTISRDNAKYTVYLQMNSLKPEDTAVYYCAADVQDRYHRAWYDYWGQGTQVTVSS | low polyreactivity
30 | QVQLVESGGGLVQAGGSLRLSCAASGSIFVTNAMGWYRQAPGKERELVAAISNSGSSTYYADSVKGRFTISRDNAKNTVYLQMNSLKPEDTAVYYCAADWYGVTGSYYYWGQGTQVTVSS | high polyreactivity
31 | QVQLVESGGGLVQAGGSLRLSCAASGSTSIYYTMGWYRQAPGKERELVAAITRGGRTYYADSVKGRFTISRDNAKNTVYLQMNSLKPEDTAVYYCAATTYLVWGYNYWGQGTQVTVSS | low polyreactivity
32 | QVQLVESGGGLVQAGGSLRLSCAASGRTFRAYAMGWYRQAPGKERELVAAISYDGTRTYYADSVKGRFTISRDNAKNTVYLQMNSLKPEDTAVYYCNAVWVRGFYRVYDYWGQGTQVTVSS | high polyreactivity
33 | QVQLVESGGGLVQAGGSLRLSCAASGSIFVRYAMGGYRQAPGKERELVASIRSRGDSTYYADSVKGRFTISRDNAKNTVYLQMISLKPEDTAVYFFADRRYPPRMDYWGQGTQVTVSS | high polyreactivity
34 | QVQLVESGGRLVQAGGSLRLSCAASGRIFLSYAMGWYRQAPGKERELVAAISRSGGRTYYADSVKGRFTISRDNAKNTVYLQMNSLKPEDTAVYYCNVVVYVLRHYLRYDYWGQGTQVTVSS | high polyreactivity
35 | QVQLVESGGGLVQAGGSLLLSCAASGRTFILNAMGWYSQAPGKERELVAAISWSGGSTYYADSVKGRFTISRDNAKNTVYLQMNSLKPEDTAVYYCAAETYAYLFHTYDYWGQGTQVTVSS | low polyreactivity
36 | QVQLVESGGGLVQAGGSLRLSCAASGSTFYPYAMGWYRPAPGKERELVAAINWSGGTTYYADSVKGRFTISRDNAKNTVYLQMNSLKPVDTAVYYCAADGYPPGYGYWGQGTQVTVSS | low polyreactivity
37 | QVQLVESGGGLVQAGGSLRLSCAPSGRIIGTNAMRWYIQAPRKERELVAAITWSGGSTYYADSVKGRFTISRDNAKNTVFLQMISLKPEDTAVYYCAKDYGYGPRFYYWGQGTQLTVSS | high polyreactivity
38 | QVQLVESGGGLVQPGGSLRLSCAASGSTFDWYAMAWYRQAPGKQRELVAAISSDDSTYYADSVKGRFTISRDNAKNTVYLQMNSLKPEETAVYYCAFDVYSDYGDYGFWGQGTQVTVSS | low polyreactivity
39 | QVQLVESGGGLVQAGGSLRLSCAASGRIIYTNALGWYRQAPGKERELVAAINRSGGITYYADSVKGRFTISRDNAKNTVYLQMNSLKPEDTAVYYCAKDYSWASYNHDYWGQGTQVTVSS | low polyreactivity
40 | QVQLVESGGGLVQVGGSLRLSCAASGFTFLGYAMGWYRQAPGKEREMVAAITTGGGSTYYAVSVKGRFTISRDNATTTVYLQMNSLKPEDTAVYYCAARRNVRPRYGYWGQGTQVTVSS | high polyreactivity
41 | QVQLVESGGGLVQAGGSLRLSCAASGSIFTNNAMGWYRQAPGKETELVAAISWSGGSTYYADSVKGRFTISRDNAKNTVYLQMNSLKPEDTAVYYCAARRWGGPRYKYNYWGQGTQVTVSS | high polyreactivity
42 | QVQLVESGGGLVQAGGSLRLSCAASGFIFGHNAMGWYRQAPGKERELVADITWSGGSTYYADSVKGRFTISRDNAKNTVYLQMNSLKPEDTAVYYCNARGRASATGRRGRPDPFGYWGQGTQVTVSS | high polyreactivity
43 | QVQLVESGGGLVQAGGSLRLSCAASGFIFYKNAMGWYRQAPGKERELVAAINWSGGSTYYADSVKGRFTISRDNAKNTVYLQMNSLKPEDTAVYYCAVVVYSGYRHYYWGQGTQVTVSS | high polyreactivity

— the nanobody polyreactivity screen of Harvey et al. (2022)
